Where no end group is shown, it is not given here.
Molecular target: bovine collagen (Symatese), polymerized gel (bovine)
Assay: retention on polymerized bovine collagen gel, antibody loaded at 10 µg/mL, released antibody measured by ELISA

% of bound antibody released by plasmin digestion after buffer changes: 47.1%
B1: PlGF-2123-144-αPD-L1 (clone 10F.9G2) (antibody, part only; not given: anti-PD-L1 antibody, part only)
peptide: RRRPKGRGKRRREKQRPTDCHL
modifications: not fully specified (residue 20); also: antibody conjugate, average 6 peptides per antibody
